Source: article PMC1636342
Read-outs that look alike come from different tables or passages of the source.

Assays:
Experiment in all cases: tryptophan fluorescence quenching
Bs-CspB [1] = target: T1, Bs-CspB (Bacillus subtilis, UniProt P32081 1-67)
Bs-CspB [2] = target: T1, Bs-CspB; remark: listed apart in the source
Bs-CspB [3] = target: T1, Bs-CspB; remark: listed apart in the source
Bs-CspB [4] = target: T1, Bs-CspB; remark: listed apart in the source
Bs-CspB [5] = target: T1, Bs-CspB; remark: listed apart in the source
Bs-CspB G54A = Bs-CspB G54A (Bacillus subtilis, UniProt P32081 1-67, G54A)
Bs-CspB F27A = Bs-CspB F27A (Bacillus subtilis, UniProt P32081 1-67, F27A)
Bs-CspB Q59A = Bs-CspB Q59A (Bacillus subtilis, UniProt P32081 1-67, Q59A)
Bs-CspB F30A = Bs-CspB F30A (Bacillus subtilis, UniProt P32081 1-67, F30A)
Bs-CspB K7A = Bs-CspB K7A (Bacillus subtilis, UniProt P32081 1-67, K7A)
Bs-CspB G35A = Bs-CspB G35A (Bacillus subtilis, UniProt P32081 1-67, G35A)
Bs-CspB F30W = Bs-CspB F30W (Bacillus subtilis, UniProt P32081 1-67, F30W)
Bs-CspB R56A = Bs-CspB R56A (Bacillus subtilis, UniProt P32081 1-67, R56A)
Bs-CspB F17A = Bs-CspB F17A (Bacillus subtilis, UniProt P32081 1-67, F17A)
Bs-CspB K13Q = Bs-CspB K13Q (Bacillus subtilis, UniProt P32081 1-67, K13Q)
Bs-CspB G54P = Bs-CspB G54P (Bacillus subtilis, UniProt P32081 1-67, G54P)
Bs-CspB H29Q = Bs-CspB H29Q (Bacillus subtilis, UniProt P32081 1-67, H29Q)
Bs-CspB D25A = Bs-CspB D25A (Bacillus subtilis, UniProt P32081 1-67, D25A)
Bs-CspB F38A = Bs-CspB F38A (Bacillus subtilis, UniProt P32081 1-67, F38A)
Bs-CspB F15A = Bs-CspB F15A (Bacillus subtilis, UniProt P32081 1-67, F15A)
Bs-CspB P58A = Bs-CspB P58A (Bacillus subtilis, UniProt P32081 1-67, P58A)
Bs-CspB F15Y = Bs-CspB F15Y (Bacillus subtilis, UniProt P32081 1-67, F15Y)
Bs-CspB G35P = Bs-CspB G35P (Bacillus subtilis, UniProt P32081 1-67, G35P)
Bs-CspB [6] = target: T1, Bs-CspB; remark: listed apart in the source
Bs-CspB [7] = target: T1, Bs-CspB; remark: listed apart in the source

Binder: TATTGGT (ssDNA) [Y-box7]
- Kd (Bs-CspB [1]): 0.53 ± 0.05 µM

Binder: CTGATTGGCCAA (ssDNA) [Y-box12]
- Kd (Bs-CspB [2]): 2.03 ± 0.39 µM

Binder: ATTATTTTTGTTC (ssDNA) [dcb1_a]
- Kd (Bs-CspB [3]): 0.044 ± 0.002 µM

Binder: ATCCTACTGATTGGCCCAGGTGCTG (ssDNA) [Y-box25]
- Kd (Bs-CspB [4]): 3.92 ± 0.045 µM

Binder: CTCCTTC (ssDNA)
- Kd (Bs-CspB [5]): 0.0125 ± 0.0006 µM

Binder: CTTTTTC (ssDNA)
- Kd (Bs-CspB [5]): 0.0337 ± 0.0041 µM

Binder: TTTTTTT (ssDNA) [dT7]
- Kd (Bs-CspB G54A): 0.0013 ± 0.0003 µM
- Kd (Bs-CspB F27A): 0.286 ± 0.007 µM
- Kd (Bs-CspB Q59A): 0.0027 ± 0.0004 µM
- Kd (Bs-CspB F30A): 0.208 ± 0.011 µM
- Kd (Bs-CspB K7A): 0.0064 ± 0.0006 µM
- Kd (Bs-CspB G35A): 0.0011 ± 0.0003 µM
- Kd (Bs-CspB F30W): 0.0013 ± 0.0003 µM
- Kd (Bs-CspB R56A): 0.0118 ± 0.0014 µM
- Kd (Bs-CspB F17A): 0.345 ± 0.063 µM
- Kd (Bs-CspB K13Q): 0.025 ± 0.003 µM
- Kd (Bs-CspB G54P): 0.22 ± 0.009 µM
- Kd (Bs-CspB H29Q): 0.104 ± 0.006 µM
- Kd (Bs-CspB D25A): 0.0214 ± 0.0005 µM
- Kd (Bs-CspB F38A): 0.228 ± 0.009 µM
- Kd (Bs-CspB F15A): 0.135 ± 0.004 µM
- Kd (Bs-CspB P58A): 0.0013 ± 0.0002 µM
- Kd (Bs-CspB F15Y): 0.0014 ± 0.0004 µM
- Kd (Bs-CspB G35P): 0.118 ± 0.005 µM
- Kd (Bs-CspB [6]): 0.0018 ± 0.0004 µM

Binder: GTTTTGTAAGAGT (ssDNA) [dcb2ds_13]
- Kd (Bs-CspB [3]): 0.066 ± 0.021 µM

Binder: CCCCCC (ssDNA) [dC6]
- Kd (Bs-CspB [7]): 12.6 ± 1 µM

Binder: GGATAAGAACGAG (ssDNA) [dcb1_br]
- Kd (Bs-CspB [3]): 1.09 ± 0.11 µM

Binder: GAGCAAGAATAGG (ssDNA) [dcb1_b]
- Kd (Bs-CspB [3]): 1.16 ± 0.09 µM

Binder: CTCTCTC (ssDNA)
- Kd (Bs-CspB [5]): 0.0108 ± 0.0009 µM

Binder: TTATTAG (ssDNA) [dcb1]
- Kd (Bs-CspB [7]): 0.02 ± 0.003 µM

Binder: TTTAAGAAGAAAGTTTT (ssDNA) [dcb2_a]
- Kd (Bs-CspB [3]): 0.46 ± 0.034 µM

Binder: CTCTTCC (ssDNA)
- Kd (Bs-CspB [5]): 0.0662 ± 0.0048 µM

Binder: ATTGG (ssDNA) [Y-box5]
- Kd (Bs-CspB [7]): 5.3 ± 1 µM

Binder: AAGTTCTGGTTTTGAG (ssDNA) [dcb2_br]
- Kd (Bs-CspB [3]): 0.03 ± 0.002 µM

Binder: TTTTTT (ssDNA) [dT6]
- Kd (Bs-CspB [7]): 0.326 ± 0.02 µM

Binder: GAGTTTTGGTCTTGAA (ssDNA) [dcb2_b]
- Kd (Bs-CspB [3]): 0.043 ± 0.002 µM

Binder: CTCTTTC (ssDNA)
- Kd (Bs-CspB [5]): 0.0039 ± 0.0002 µM
